Results on two proteins are retold here after publication PMC6980832, “Crystal structures of Triosephosphate Isomerases from Taenia solium and Schistosoma mansoni provide insights for vaccine rationale and drug design against helminth parasites” (PLoS Neglected Tropical Diseases, 2020).

Series [1] concerns the molecule itself. Kind of series: crystal structure; sitting drop; protein 20 mg/ml incubated with 10 mM 2-phosphoglyceric acid in storage buffer; homodimer seen in the crystal.
Series [2] concerns the molecule itself. Put plainly: SEC; gel filtration elution profile of wild-type and point mutants of SmTPI; conditions not shown. For orientation: Size exclusion chromatography separates by hydrodynamic size, large species first.

B1: Triosephosphate isomerase from Taenia solium (enzyme)
chain: GPHMTRKLFVGGNWKMNGSYSHINTFFDTLQKADTDPNADIVIGVPACYLKYAQDKAPKGIKIAAENCYKVGSGAFTGEISTEMIKDCGCEWVILGHSERRHIFGESNELIGEKVKHALDSGLNVIPCIGELLSEREAGKTNDVCFAQMDAIAKNVPSKEAWDKVVIAYEPVWAIGTGKTATPAQAQEVHKVVRDWIRKHVDAGIADKVRILYGGSVTASNAKDLGTQPDVDGFLVGGASLKPDFITIINARR
notes: three additional amino acids (Gly, Pro, His) before the initial methionine, left from the modified pET19 vector; triosephosphate isomerase, Taenia solium, GenBank AAG21132.1; all 250 amino acids visible in the crystal structure; also called TsTPI; source: E. coli strain devoid of its endogenous triosephosphate isomerase gene, purified (two purification steps)
Take B1: the binding result in series [1] was “binds”.

B2: Triosephosphate isomerase from Schistosoma mansoni (enzyme)
chain: GPHMSGSRKFFVGGNWKMNGSRDDNDKLLKLLSEAHFDDNTEVLIAPPSVFLHEIRKSLKKEIHVAAQNCYKVSKGAFTGEISPAMIRDIGCDWVILGHSERRNIFGESDELIAEKVQHALAEGLSVIACIGETLSERESNKTEEVCVRQLKAIANKIKSADEWKRVVVAYEPVWAIGTGKVATPQQAQEVHNFLRKWFKTNAPNGVDEKIRIIYGGSVTAANCKELAQQHDVDGFLVGGASLKPEFTEICKARQR
notes: three additional amino acids (Gly, Pro, His) before the initial methionine, left from the modified pET19 vector; triosephosphate isomerase, Schistosoma mansoni, XP_018647623; all 253 amino acids visible in the crystal structure; also called SmTPI; wild-type SmTPI; source: E. coli strain devoid of its endogenous triosephosphate isomerase gene, purified (two purification steps)
Broadly, the stoichiometry N is a count of units in the complex or per binding partner. Turning to B2, the “stoichiometry N” value in series [2] stood at 2.
